The domain aggregation screens of Martell et al. (2025)

Test: soluble fraction after stress (log2 fold change); higher = more stays soluble; pooled small domains, quantitative proteomics
Details: stress: pH 4
Procedure, shortened: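 Pooled custom libraries of small protein domains were subjected to pH 4 and measured by high-throughput quantitative proteomics. The log2 fold change in soluble amount per domain is reported, higher values meaning more remained soluble. This is used as a measure of aggregation propensity.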

Row | Sequence | soluble fraction (log2)
1 | HMQISDEAALLAIVDRVIADNQGPLANYLGGKQSLLGWFVGQVMRATRGQAIPAVVNRLVGERLAAQREE | -0.278
2 | HMQISDESQLREVVSKILEENEQSVIDYKNGKTRAMGFIIGQVMKATRGKANPQLVNEIVKEMLDE | -0.137
3 | HMQISDTASIQEIAKEIIKSNPKAVEDYKKGKENALQFLVGQLMTKTKGTVHPGAARTILGDILK | -0.205
4 | HMQISDTSELEAVVQDILKANMDVVAKIKAGKTNSANFLMGQVMKLTKGRAKPDTVLQLILDAVKQ | -0.374
5 | HMQISLAAARVNAGLTQEEVAKAMKVGKQTIVSWEKGNSEPKMSQSRELSELYKIPLDYIFYP | 0.138
6 | HMQITDSGAIETIIDKIIADNPGQVTQYLSGKDKVFGFFVGQTMKASQGKANPAEVNKILQEKLK | -0.029
7 | HMQITQSSEPIDVSALRLGMFIHLEGGWLSHPFPRSSFKITSEDQLVTLRSLGISVLRWSPELSDPE | -1.46
8 | HMQIVPVDYSTFMQSIDDKTVDHVEIQSNQILYTVKDDHKKYKTGIMNDPTLAQRLMESGATFTQD | 0.185
9 | HMQKAEQIGSLLREKRKSMGLTQDELAQQVEVRRQTLADLELGKNVGSHLLIKVMEHLGVGFDLL | -0.962
10 | HMQKEIKVPDVANMALSEAVEKLQNEGFKVADEQKEVSSDEIEEGKVVKTSPVAGTKKTKGSEITIYISSG | 0.22
11 | HMQKFLEATGENRDAAVENALEQLGLERDDVSVEVLEIGKKGFLGIGATPARVRVTYEAPDI | -1.51
12 | HMQKKEVTVPEVRSKSLKEAAQILSEQNLKYETEPVNVENPDMVVIDQFPKPGGKISEQSVIILYLR | 0.146
13 | HMQKLNIEEQIVYDIIFKNKELSANEIQIKSGIKTSILNALLINLEIKQYIKLKFGNFYEIK | -1.63
14 | HMQKMPEMQILPNGKVKLPDFSGINMRKAAELLQYGKLRLQPYGSGTAYQQKPAAGTEVDEGTVVEIWF | 0.189
15 | HMQKNFYQILGVDSKASPATINAAYERAKSRVIQSGLEDPDTMALLRDAWETLADPGDRAAYDESLAT | -0.0938
16 | HMQKPELLAPAGSLEKAKTAFKYGADAVYMGTSNLSLRSRVTVDDDELIKTIEYAHSINKKVYAALNIYAR | 0.134
17 | HMQKPWFYESSGQRKGGFSEQEMVGLITDGEITHGAIVWRNGLSDWTKLEQTELAAHLDKTA | -1.06
18 | HMQKRDQKKRANMLDSLKVGTRIVTIGGIFGEIAKIKDDRIRIKVAEDVEIWIRRAAVGTVIT | ≥ 0.43
19 | HMQKTPFEIMTIYKDQILEMLGKDLTATEISIVLKKKGEKVHPREIRKFQLQHYEEVQDMRKKWRE | -0.632
20 | HMQKWILVNKQGRLSGILDHRAFNTRESATAWFQRTSDISGGTIKIDDYYYVLKNEEYKLLKE | -1.34
21 | HMQKYEDIINVTRERLQNKFYSQTVIPTDDDIYIWLDKVAILEEIKLSKEDRQMLFNLLKKEAT | -0.879
22 | HMQLGQMIVKLRKEQGLTQETFAKKFNVTRQTVSNWENEKSYPDLHTLVKISDEFHLSLDILLK | 0.272
23 | HMQLGSILAYKFPQFGGIDGAWQVRDDSNGTGPYIAFWDAKTIGRGMPTEDELTAWAQEYEA | -1.38
24 | HMQLPTPEDLKKRRNELGLTQSDLAKRAGVSQPLIARIESGDVDPRLSTVRKILDAFEEVEKEQQ | 0.0627
25 | HMQLSASQQQILNHAAVNTDGKLVWFPETLKGGARKKVLDSLFSRALITTDGTHWFVAAEGYEALGIP | -0.0982
26 | HMQLTDLSALEAIIKEVLAANPKSVEDYKSGKEKAFGSLVGQAMKATKGKANPETVNSLLRKNLN | -0.0162

Row | Sequence | soluble fraction (log2)
27 | HMQLTDSDFTRLYTYVKNSYGIDLSKKKQLISSRLTNMLIQQGYRDFTQYTDEIISGKNPEMVSAMLNRLT | 0.0695
28 | HMQLTPAQHAILAKAIHSSDGKIEWFPDNVKGGARKKVLEGMFNRALITPDGEGWRIAAEGYDALGMPRP | 0.165
29 | HMQLVGSSAAVLIPAPAGGLGKIRLEFRGQTIDLIAKATDGGALIEGGAVTIVDVRDGQADVSV | -0.329
30 | HMQMMDATLKIPPSMGKLRGTLYELNSVTSEDVDENGQLALHVRLSSVDWQRLKKRFDSNLDELIVQKN | -0.427
31 | HMQMPLTMATMGEVNKIVKVGGNEETRRFLANLGFVAGAEVVVLSKIGGNVIVNVKDSRVAVNEDMARHIM | -0.692
32 | HMQMSDTAAIGKIVDEVFAENPAALEDYAKGKTNVVDWLTGQVMKKSRGQANPGIASELVQKRLADF | 0.101
33 | HMQMSDTGAIEAMVKEALDENPQAIEDFKNGKGKALGFLMGQVMKKSKGQANGGIVNKLIKEELQKRIG | 0.315
34 | HMQMTKSEFLDALRRALNGNMAAASVDDNIRFYDSYFYTEETKGRSEAEILSELGDPRILARTLIDAAD | -0.382
35 | HMQNEIQQLAIDLIARAHKSGASDIHIVDTGTYTRIKFRVLGLLREDSQMEAETGRQMISTIYGILG | -0.19
36 | HMQNEKLSYFVTETIVTERADLFITKKFPQFSRSQIQKLINSGNITINSNPIKASTEIINKDNIEITIPV | -0.814
37 | HMQNESGLFTMSDLWEAGLMGSENASRKRAAVGAFLGIGFGNGKQFLKRLNHFGVTKEEWESALEQLGE | -0.447
38 | HMQNEVMPYSTFLSEVNSGNVTKVKIDHEQLTGTLKSGKQFTTYILDAATLPSIVAEKGVEVEVVPP | 0.195
39 | HMQNGNYVVQRQDSLWSIAARISGQTHQPIGEVMNHIKALNEHAFVGGNVNRLRTGTNLNLG | 0.125
40 | HMQNKRQEQLLALLAERRDYMTSRQLAEILQVSDRTIRSDVEAINRRSSPPPIESNVRQGYRLNPEA | -0.0908
41 | HMQNNIEFTVLEEDAQKRLDVLLSEKTALSRSASASLIEEGGVLVNGRKEPKKYKPVRGEIITAILPE | -0.549
42 | HMQNNTIAFSKFLQEVDNGRVVQVEIQGNNINGILSDGSKFNTYSPNYPALVEKLSEKNVNIVASPV | 0.385
43 | HMQNPDHLLALAAAAQAAIELGRPDEAEAYYRHLVEVYGVEMASQKPEYLDHSGITNDLRNVAEGFLVG | -1.32
44 | HMQNRIVNTTQGLAADKRGLLVADETGHTTRPGIFASGDVVNGARTVVEAVAHSKIVAESMHQYMQ | ≥ 0.43
45 | HMQNSLKAFRVKRGLTTSALSRLTNGEFSTSRISNYETGVRALTIDAAKKLAPHLGASPAQLLNL | 0.371
46 | HMQNSPVFAASDIEDIRVGMTVEHQRFGQGRVMSIEGNGPNKKTTVLFEGIGEKQLLLQYAKLKIV | -0.242
47 | HMQNYLLFEEAKNIVNTLNLTNEKDWSEFIKKDFTYKNQIPIFPNQYYKHKGWVDWNDWLGINK | -1.62
48 | HMQNYTTIIGVIELRLNDISYDNVRKRYHIGRSGITLIMDRYRDSGLSLEDLKQMTPEKVVDLFYPR | 0.0145
49 | HMQPAALEAQVIKLVRLHAPIKARQLATILANEFGQHVDRSTVNSLLYQLRAQGKVAQNAAYQWSLT | -0.0984
50 | HMQPEKELAPLIGQRVSVRLHDGDGGYRDLLGELESPDSIRKKNGEIAFFDPAKIAALRVVV | 0.326
51 | HMQPGDRVDALIVGVSGEHVFLDVGGKSEGVMAAAELRNEAGELSAAEGDRVQVYLLSNRNGELIFTA | -0.283
52 | HMQPHLSADEEHLLKILGSDTMHIDALVKRSTLETSNALAALAFLEMKGLVKNIGNMHYIRTYR | -0.518

Row | Sequence | soluble fraction (log2)
53 | HMQPIAVHIGTENPMKSLSDLSVVRAQFTSGGRVIGSVAVLGPTRMQYSRIVGMMRFMQQRLDLLLKG | -0.0772
54 | HMQPKKLNMYYDYVRQLLESHPYLSAAQIEDRLKEEFTELPMVHSKTVFNFVENIRLQHGINKHA | 0.0853
55 | HMQPLRQGDFVTSEVVKVQDGTAVLRTAQGTLLSASLTGNLGLLPGDRVETVVVEASPGRFVLRVLDIIR | -0.266
56 | HMQPPLTPRELGVLQWAAEGKTTRDTSAILQIHQRTVEMHLKSAREKLDALNTTHAVARALAHGFILPPS | 0.102
57 | HMQPPVDGNEIMEIFGIKGSPVIGVIKSTIKNAILDGIIAPNDREAALELMFRIADENGLKPVVTQTQ | -0.855
58 | HMQPRYMLIKTAILDAIERGEMKPGSQVPSENQLAQQHNVSRMTARRALSEMVDDGILMRSQGIGTFVSD | -0.591
59 | HMQPSFFEMIRMVESYIKQHFENVGNEFPEIARAIYYGIEEERNIYGTASREDMEELLDEGIPILPVP | -0.937
60 | HMQPVEHLPTTDPLTTSAASEHERYEKVRWWLEEMQRTYETGDEVRAERIRLSLIEQMYKWEGE | -1.09
61 | HMQPYTYNPNFLSDYRAYSLGIPLEAYDKLVQFRASGSFVNSMSDFQKITGVSDSLLAVLHSKFRYPK | -0.602
62 | HMQQELEEMESGNLVRTAIDSLPINQRTAFILSAYEELPIKEIASIMNRSEGAVEQLLQRAKMNLKKKIK | -0.0659
63 | HMQQLTDRELEVLRLLAAGLSNNKIGEKLYISATTAKFHVSNIMRKLEVSRRAEAVYAASKRGL | -0.587
64 | HMQQLTQRELTLLRLLANGYNNRQIAEQLQLAESTVKNNLSALFQKIGVRDRTQAVLFAISQGLVP | -0.462
65 | HMQQNDMTELRALAEKIISENDSVINDYKSGQGSALQFLIGQAMKETKGSANPQVISEIFTDLL | -0.548
66 | HMQQPIPGEAYLTRRPGSDHFQIAFTIDGHRVRESSGTSDKVAAAALAQKRYEEVWREIKLGEK | -0.0232
67 | HMQQPVAYSEFVQSVNDRQIREAQIQGERIVATDNNGNRMTVIWPENDTKLLDELVQNGVLTSIQE | -0.675
68 | HMQQVDWGSVFGDFGTMFKDQLQPTIDRLRRMAQSDTFRQSSLEEQQILYSLIEKLERSGTA | -2.1
69 | HMQQVIEGLDSDRDFITVPEAIALFAVGRQTLYHYIRSGKIPSVNLGQRLTRLSKKQLGELFPLR | -0.287
70 | HMQRGRTFSIVLNWKGRLLSTQMFFPQFTRPTKEQVTFEINKVYPGAMVYYYNPIEKDPSQPLV | 0.0658
71 | HMQRLSRREIEVLHWIAEGKSDWQIGQILSISAKTVNYHTENLKRKFGVATRMQAVVSAIKQGAFVPGE | -1.31
72 | HMQRVSDKVAAQLRVLVQEQQLKPGDRLPAERALAVQLGVSRTALREAIAQLASQGLLTARVGGGTYVAEP | 0.22
73 | HMQRYVVDENLKLDKKDINHIINVMRLNVNDQIKLINNGTIYDAIITKIEKNNVLYEIIKKEESK | -0.809
74 | HMQSANQLIKLSRKRKGLTQQELADQAGVSLRTVQRIEKGTEEISGFSLKQISQILEIPLEQLIM | -0.652
75 | HMQSLDGPSRAAIVLMAIGPDVAGELIKSFSPAEAQKVSSLLATVRSLDREVMIEVLDSFKNITEH | -0.5
76 | HMQSLPFSFAKRHGVLLKSINHLHGEAVYRIGANPLSLSEVQRYAGVPLKLSSITVEKFDRLLQETYEHD | -0.436
